Assay results: a protein production outcome set (Wang et al. 2014)

Assay: label from the status in PepcDB records

Row | Sequence | protein production
1 | MAGRRMKRLRAFFYVQHLLGIGHLARASRIAAALADDGFDITVVTGGPPIAGFPGQGVKSVTLPPVTSGDNGFSGLVDLQGKPIDDDFKKRRSEMLLQAFRDCRPDIVIVEAFPFGRRQMRFELLPLLETIEATSPRPLLATSVRDILQERVKPGRNEETVDLINRHFDLVMVHGDPAFTTIDKTFPLAGAITAEVTYTGLVGAPPSPAAAERFDILVSVGGGAAGRRLVSSTLAAARIANGWKWCLITGPNLPKDEFDVIACDATPGLSIFRFREDFASLLTGARLSVSQAGYNTVCDVLRAGCRSLLVPFAAGGETEQTVRALMLEELGLATVLTENDLTPDGLAQAIEQALAGPTPSAHRLDLEGARHSAQILRERYRTWSLKMGSGFGKEHDQTDDGS | failed
2 | MKQPNYYQDVKQFHQTFHHPGADQPTAIPLDRGVKRATWTAEEAVVEFLHQSSQNETEFLAAIETFKAGLDQAVKKSLKETYPVTEVERLVGQGDALTDALYFIMGSFVEAGLEPGPLFEIVQQANMAKLGPDGQPIFRESDQKVMKPDGWLPPEPQLEAEVVRQMKEKA | not failed
3 | VARTAEEQANHDLVIEMYNKVLIAMDSSAVDRYIAPGYVQHSSLAEPSVEALKGFLDRVRAESPDARQTIHRSFVDGDHVITHTHVERWPGDAGLAVVDIFRVEGGMIVEHWDVIQDVPANPVNPNSMF | not failed
4 | VPPPGTMVMVERKVGSWVDGQPIDLQRDWRSWEQLPDSLKVAVIAGEDQHFAEHHGFDLPAIQQALAHNERGGSIRGASTLSQQVAKNVFLWSGRSWLRKGLEAWFTLLIETLWTKQRILEVYLNSAEWGPGVFGAQAAARYHFGLDAERLSRTQASQLAAVLPSPLKWSAARPGPYVRQRAAWIRQQMWQLGGDDYLLRLER | failed
5 | MGISVASSNKPNNYDRYFNIYGVVIAAVLAAIAAIEIFEIFELPFEKYFAGIDIASIFSFTTKVVSDSSYVGIFILMTLESMFIPIPSEVILPLSGFLVYQGSFNFAVVLADTIIASMVGSFIDYFLGLYLGRPIIVKILSYFSISEDSLSRAETWIDKMGSFSVFLARFIPGIRSLISLPAGMLKMKMWLFALMTFLGSFIWSFSLIYLGYSAGPYWSVAVKNFSALLDQIIIDVVFLASLAYIFYYIFLKIKRRQHALD | failed
6 | MSPKTTKKIAILTSGGDAPGMNATLVYLTRYATSSEIEVFFVKNGYYGLYHDELVPAHQLDLSNSLFSAGTVIGSKRFVEFKELKVREQAAQNLKKRQIDYLVVIGGDGSYMGAKLLSELGVNCYCLPGTIDNDINSSEFTIGFLTALESIKVNVQAVYHTTKSHERVAIVEVMGRHCGDLAIFGALATNADFVVTPSNKMDLKQLESAVKKILQHQNHCVVIVSENIYGFDGYPSLTAIKQHFDANNMKCNLVSLGHTQRGFAPTSLELVQISLMAQHTINLIGQNKVNQVIGNKANVPVNYDFDQAFNMPPVDRSALIAVINKNII | failed
7 | MNRAREINYLNSIALHQPFGIVGVSGETGIGKTTVLNFVNPEGVFTVRVNISLRDSMESILYDLLHSLALSLEKVEEVSDLAKEVRKWITDEVSTIKGFSLGVSFGVNASLTHEKSIRPRFNFFKAREKLGELIKQTVQRKGKFLLIIDELDKEKKEDVLRVIDSIKNFIIMEDFVVILSLPFSIYREYAADRLRWNEAGNLENIFTDIVFVEPLKKLEIKELIIKRLGSYIELIEDGVLDIVADFSDGNPRDGLWILTKAIYDNIHKELLSKEDLINTINRTISEYTGLTLNLTENQKKAIRVLRGSVYSREKIIETLQKEGFKRTTAYSVMDQLLQKRILLVEKEGYRISGKFSYMEI | failed
8 | MSMGKKHLNINSQNHQSTKDEDNNCKNSLFFGLFDDPESKRLRSGSMKRQYSDMGDSYHRVYDEQNDDVEYDGDGDGDEDEGSRMDMRVLMVLEYMRELYVGQLQLLKKMFPGAAKDEFLGFFNKIGDAVSQIKQDSRPPTKSMTMRRSLSAGSPRFTSKGVNLGPSDLRHERFKVTMVNAGGAAGSAGGGKGGSAAGQGQTKK | failed
9 | MTQKTGALIFDETADRYDIRFDLNDYYGGLHCGDCLEVFVRGKWKPTRMEYGDNWYLVGVRASDLNGLRVRILEHHHHHH | failed
10 | MAKKRGKPEIDWTDDDKEIIWVSKSEIKRDSEHLKKLGAELIELTPQNLEKIPLDEDLKYAIRQAQSFKLEARRRQIQFIGKLLRNRDSAPIQDALDKVKNRHNQQQALLHKLELIRDQLINMGDASLNQLLSEYPQLDRQHLRNLIRMAQKEKQINKPAKNYHEILQYLKSELIV | not failed
11 | MAEPVDVLVLGGGPAALCIASELNQWGVAVGCIAPDPVDASWPNTYGIWADELKMVGLEHLLEHRWSDTVSFFGAGGSTAQDQSHAHGIDYGLFDRAELQRYWLERADGVVWHQDTAERVDATSATTSVSCVSGTTLQARLVIDASGSRTPHIRRPDQGPVAGQAAYGVVGRFSQPPIEAGRFVLMDYRCDHLSAAQRQEPPTFLYAMDLGDGVFFVEETSLALAPGFSYDVLKQRLQQRLDQRGVAITEVIHEEFCLFPMNLPLPDRSQPLLAFGGAASMVHPASGYMVGSLLRRGPDLAKALAEALANRNLGSAALAQRGWQALWPIELVLRHQLYQFGLGRLMGFNEALLRTHFATFFSLPREEWFGFLTNTLPLPRLMGVMLRLFALSPWELRRGLVLGAAMDQLPTFDQSSG | failed
12 | MPKKPLIDQLHHEDSWRLFRILAEFVEGFETLSELQVPLVSVFGSARFGEGHPAYEAGYRLGRALAEAGFGVVTGGGPGVMEAVNRGAYEAGGVSVGLNIELPHEQKPNPYQTHALSLRYFFVRKVLFVRYAVGFVFLPGGFGTLDELSEVLVLLQTEKVHRFPVFLLDRGYWEGLVRWLAFLRDQKAVGPEDLQLFRLTDEPEEVVQALKAEAPPR | not failed
13 | MDTTAVLLKGPKDLDVDTLQLHVPGDGDLVVEIEHSGISTGTEKLFWSGEMPPFPGMGYPLVPGYEAVGEVVEADRATGFKVGERVFVPGANCYDGAFGLFGGAASRVVTASDRVTRIDAGHGASGALLALAATARHSMAGLNKSVPDLIVGHGVLGRLLARLTIAAGAPAPMVWEIDESRRKGAQGYEVIAPEDDPRRDYTSVYDASGSVEVLNDLVGRLAKGGEIVLAGFYTTAISFAFPPAFMKEARFRVAAEWTHDDLAATRALVEGGSLSLENLITHQASHLNARAAYAQAFTDPDCLKMILNWKDVA | failed
14 | MESLPFVAAQPTIVPQLQQQVTGLTSSLNSQEKKELTHKLESIFNNTQVQIAVLIVSTTKDETIEQYATRVFDNWRLGDAKRNDGILIVVAWSDRTVRIQVGYGLEEKVTDALAGDIIRSNMIPAFKQQKLAKGLELAIIALNNQLTSQHQYPANPSESESTSSTDHYYFAIFWVFAVMFFPFWFFHQGSNFCRACKSGVCISAIHLLDLFLFSDKTFSIAVFSFFFTFTIFMVFTCLCVLQKRASGRSYHSDNSGSAGGSSGGASGRWLEHHHHHH | failed
15 | MGVPEPRPDWSRRLLGQGEAPDPRFTLANERTFLAWVRTALALLGGAIAIETFAGHVLETPLRLWLVAGLMLLSALLSAGACLRWLRVERALRRRRPLPLPALVPLLALGCLVAVLLAGLVLWPRWHG | failed
16 | METSLISPMKENNTAQPQQREENTQQNLNAAVPIKQQSPGLLPEALEVGVKPDPASQILATQEIENPVAGFEGDSDKFHISTDEMAEHLQASDLWYCPDGSFVKKIIVHGHGLDKPKLGSKCRVLALGFPFGSGMPEGWTELTIGTGQWREKTWGELTEKCLESMRQGEEAKIHLPGSSTPLAKLRLDSFTNGRDSWELEAVEKEALAKEEHRRGTELFRAGNPQGAARCYGRALRLLLTLPPPGPPERTILHANLAACQLLLGHPQLAAQSCDRVLEREPGHLKALYRRGVAQAALGDLDKATADLKKVLAVDPKNRAAKEELGKVVIQGKIQDAGLARGLRKMFS | failed
